Measurements as given in patent publication US9206246B2, “Heparin/heparan sulfate-dependent inhibitors of activated protein C and uses thereof in treating hemophilic disorders” (Academia Sinica, priority 2012, dated 2015).
“And” between values parts separate entries of the source, which are not always exact repeats. Equal entries are not always repeated.

Legend:
trypsin = experiment: Selectivity profile, amidolytic activity of trypsin; type: biochemical; details: equimolar DrKIn-I and enzyme active site, trypsin 5 nM
Method: In each of these experiments, the molar ratio of protease active site to inhibitor was 1:1. The final concentrations of these proteases and their respective substrates were as follows: FXIIa (20 nM)/S-2302 (0.2 mM), FXIa (2.5 nM)/S-2366 (0.2 mM), FXa (10 nM)/S-2222 (1.3 mM), FIXa (200 nM)/Spectrozyme FIXa (1.3 mM), FVIIa (100 nM)/S-2288 (1.3 mM), thrombin (5 nM)/T-1637 (0.2 mM), kallikrein (5 nM)/S-2302 (0.2 mM), plasmin (20 nM)/S-2251 (0.2 mM), tPA (80 nM)/Spectrozyme tPA (0.2 mM), uPA (100 nM)/S-2288 (1.3 mM), APC (10 nM)/Spectrozyme PCa (0.2 mM) and trypsin (5 nM)/S-2222 (0.2 mM). Results shown are means±SD of at least three experiments.
DrKIn-I, with or without heparin, was screened for its inhibitory activity against trypsin and also against serine proteases in the coagulation cascade (FXIIa, FXIa, FXa, FIXa, FVIIa, thrombin and kallikrein) and in the fibrinolytic system (plasmin, tPA and uPA). The amidolytic activities of these proteases were determined in the presence or absence of equimolar concentrations of DrKIn-I using their respective chromogenic substrates.

[1] = tested on: APC in FIX-deficient plasma; experiment: APTT-based APC resistance assay in FIX-deficient plasma; type: biochemical; details: 50-200 nM DrKIn-I, 40 nM APC, 2 μg/ml heparan sulfate
Method: APTT-based clotting times were measured in normal, FVIII-deficient and FIX-deficient plasma containing 2 μg/ml heparan sulfate in the presence or absence of 40 nM APC and the indicated concentrations of DrKIn-I. Results shown are means±S.D. of at least three experiments.
50 μl of normal plasma, FVIII-deficient plasma or FIX-deficient plasma supplemented with 2 μg/ml heparan sulfate (four disaccharide units long) was exposed to APC (40 nM) and varying concentrations of DrKIn-I (50-200 nM). 50 μl of activated partial thromboplastin (APTT) reagent (HYPHEN Biomed) was added and incubated for 1 minute at 37° C. Finally, clotting was initiated by adding 50 μl of 20 mM CaCl2. Coagulation times, which reflect the activities of APC, were recorded on a coagulometer (Hemostasis Analyzer KC-1; Sigma Diagnostics).

APC [2] = target: T1, APC (Homo sapiens, UniProt P04070); experiment: Surface plasmon resonance, immobilized APC; type: binding; design: purchased Haematologic Technologies; details: no heparin
Method: A: 70 μg of DrKIn-I in 0.1 ml equilibrating buffer (20 mM Tris-HCl, pH 8.0) was applied to a 5 ml HiTrap Heparin column and eluted with a 50 ml gradient from 0.0-1.0 M NaCl. […] The thin lines represent the global fit to the response data. […] Results shown are means±SD of three experiments. Representative binding traces are shown.
Biacore T200 (GE Healthcare) was used for analysis. APC or PC dissolved in 10 mM acetate buffer (pH 5.0) was immobilized on a CM5 sensor chip to a response unit (RU) of 1000 with an amine coupling kit. Associations and dissociations of DrKIn-I were performed in 10 mM HEPES (N-2-hydroxyethylpiperazine-N′-2-ethanesulfonic acid; pH 7.4), 150 mM NaCl, 3 mM EDTA (ethylenediaminetetraacetic acid) and 0.05% P20 with a flow rate of 60 μl/min. […] Binding kinetics were determined by global fitting to 1:1 Langmuir binding model using the Biaevaluation software (GE Healthcare).

APC [3] = target: T1, APC; experiment: Kinetic analysis of APC inhibition (Morrison tight binding equation); type: biochemical; design: purchased Haematologic Technologies
Method: Initial velocities of APC (20 nM) were measured in the presence of increasing concentrations of DrKIn-I (0-80 nM) using different concentrations of Spectrozyme PCa (●, 0.4 mM; ▪, 0.2 mM; ▴, 0.1 mM; ▾, 0.05 mM; ♦, 0.025 mM) as substrate.
APC was incubated with heparin and increasing concentrations of DrKIn-I for 3 minutes. The initial reaction velocities (mOD405 nm/min) were then determined at 37° C. after the addition of varying concentrations of Spectrozyme PCa. The final concentrations were as follows: APC (20 nM), heparin (0.1 U/ml), DrKIn-I (0-80 nM) and Spectrozyme PCa (0.025-0.4 mM). Initial velocities were plotted against inhibitor concentrations for each substrate concentration tested and the plots were subjected to nonlinear least squares regression using GraphPad Prism software. The inhibition constant (Ki) of DrKIn-I was determined by global fitting to Morrison's tight binding equation as shown below, Vs=(Vo/2Et){[Ki′+It−Et)^2+4Ki′Et]^1/2−(Ki′+It−Et) (Eq. 1) where Vs is the steady state velocity in the presence of inhibitor, while Vo is the velocity in the absence of inhibitor. It is the total inhibitor concentration and Et is the total enzyme concentration. Ki′ is the apparent inhibition constant. […] (vii) Selectivity Profile of DrKIn-I

T1 sequence (P04070 212-450 limits assumed): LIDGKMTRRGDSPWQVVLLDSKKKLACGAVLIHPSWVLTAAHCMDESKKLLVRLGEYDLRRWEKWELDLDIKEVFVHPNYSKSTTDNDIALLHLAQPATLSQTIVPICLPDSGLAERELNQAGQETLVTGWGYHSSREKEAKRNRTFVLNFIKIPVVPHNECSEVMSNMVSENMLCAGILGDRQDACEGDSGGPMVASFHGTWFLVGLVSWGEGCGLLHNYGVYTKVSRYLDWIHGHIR
T1 sequence (P04070 43-197 limits assumed): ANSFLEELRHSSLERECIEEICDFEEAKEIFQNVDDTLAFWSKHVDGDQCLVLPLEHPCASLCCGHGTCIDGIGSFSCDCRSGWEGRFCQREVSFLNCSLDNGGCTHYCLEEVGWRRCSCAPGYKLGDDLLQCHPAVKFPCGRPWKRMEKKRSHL

DrKIn-I (CGGNDNNFETRKKCRQTCGAPRKGRPT) was tested, and the inhibition of trypsin (trypsin) was about 45%, the clotting time [1] was “dose-dependently decreased the clotting time” and the association rate constant (APC [2]; 1:1 Langmuir model) was 1.3±0.8×10^7 M^−1 s^−1 and ~1.3×10^7 M^−1 s^−1 and 1.7×10^7 M^−1 s^−1. The dissociation rate constant (APC [2]; 1:1 Langmuir model) was 3.4±2.2×10^−2 s^−1, the Kd (APC [2]; 25° C.) was about 2.6 nM and the Ki (APC [3]; 0.1 U/ml heparin, APC 20 nM, read-out: inhibition constant (Ki)) was 0.053 nM and ~0.053 nM and ~0.05 nM. For the same substance, the “ratio of Ki for FXIa and plasmin to Ki for APC” value (APC [3]; in the presence of heparin) was “at least 25 fold”.
